In paper PMC7820495:

B1: VCP^WT-sfGFP (Drosophila VCP tagged with sfGFP at the endogenous locus) [Drosophila] / wild-type VCP (endogenous, untagged, Drosophila) [Drosophila (endogenous in flies)] (parent)
chain 1: MADSKGEDLATAILKRKDRPNRLIVEEAQNDDNSVVSLSQAKMDELQLFRGDTVILKGKRRKETVCIVLSDDTCPDEKIRMNRVVRNNLCVHLSDVVSVQSCPDVKYGKRVRILPIDESTEGVTGNLFEIYLKPYFLEAYRPIHMGDNFIVRAAMRPIEFKVVLTDPEPYCIVAPETVIFCDGDPIKREEEEESLNAVGYDDIGGCRKQLAQIKEMVELPLRHPSLFKAIGVKPPRGILMYGPPGTGKTLIARAVANETGAFFFLINGPEIMSKLAGESESNLRKAFEEAEKNSPAIIFIDEIDAIAPKRDKTHGEVERRIVSQLLTLMDGMKKSSHLIVMAATNRPNSIDPALRRFGRFDREIDIGIPDATGRLEVLRIHTKNMKLHDDVDLEQIAAESHGHVGADLASLCSEAALQQIREKMDLIDLEDDKIDAEVLASLAVTMENFRYAMTKSSPSALRETVVEVPNTTWTDIGGLESVKKELQELVQYPVEHPDKFLKFGMQPSRGVLFYGPPGCGKTLLAKAIANECQANFISVKGPELLTMWFGESEANVRDIFDKARSAAPCVLFFDELDSIAKARGGNVGDAGGAADRVINQILTEMDGMGAKKNVFIIGATNRPDIIDPAILRPGRLDQLIYIPLPDDKSREAILKANLRKSPLAKEVDLTYIAKVTQGFSGADLTEICQRACKLAIRQAIEAEIRREKERAENQNSAMDMDEDDPVPEITSAHFEEAMKFARRSVSDNDIRKYEMFAQTLQQSRGFGQNFRFPGQTGNTSGSGNNLPVNSPGDNGDDDLYS
chain 2: B1 chain 1

Variants of: B1
Test: co-immunoprecipitation (IP: GFP, IB: VCP), band quantification
Details: with wild-type VCP (endogenous, untagged, Drosophila) [Drosophila (endogenous in flies)]; heterozygous flies; n = 3 independent experiments; read off a plot

response	Variant
0.93	chain 1 P134L
